*1 amine or outer side, *2 acyl side, *3 side chain or, on linkers, in order; H or OH if unused. Where a SMILES comes first, the peptide text is derived from it. Side-chain parts run from the residue outwards. [ ]: non-standard residue; d: D form. The star is where a group is joined. DOTA = O=C(O)CN1CCN(CC(=O)O)CCN(CC(=O)*)CCN(CC(=O)O)CC1; NH(2-(imidazol-4-yl)ethyl) = c1ncc(CCN*)[nH]1; Suc = O=C(CCC(=O)[*:2])[*:1]

This is an account of results in patent US20030235534A1, “Methods and compositions for radioimmunotherapy of brain and CNS tumors” (priority 2002, published 2003).

Series [1] concerns inoperable brain tumor in the pons. The experiment in a line: Treatment of a brain cancer patient with pretargeted bispecific antibody-mediated radioimmunotherapy using an alpha-emitting radionuclide (intravenous).
Description: This preparation has an In-111 label to confirm targeting to the brain tumor by gamma camera imaging 24 h later. After two more days, to allow for adequate localization of the bispecific antibody to the tumor and clearance from the body, the Ac-225-IMP 241 of example 7, above, is also injected intravenously, at a dose of 1 mCi.
The test system of a further series is glioblastoma multiforme. Briefly: Treatment of a brain cancer patient with pretargeted bispecific antibody-mediated radioimmunotherapy using an alpha-emitting radionuclide (hapten into surgical cavity).
The subject of a further series is glioblastome multiforme. Briefly: Treatment of a brain cancer patient with premixed bispecific antibody-mediated radioimmunotherapy using a beta-emitting radionuclide. The settings on record: 1:1 molar mixture with bispecific antibody of Example 1; 12 mCi Y-90, 10 mg antibody, into reservoir, 4 days post surgery.
Setting [2] is: 1 mCi i.v. after 30 mg i.v. humanized anti-tenascin x anti-HSG bispecific antibody, 8 weeks later.

Description for glioblastome multiforme: A patient with recently-diagnosed glioblastome multiforme in their left hemisphere, which is limited to a focal lesion, undergoes a gross total resection, with placement of a Rickham reservoir and catheter into the surgically-created resection cavity. Placement of the catheter is confirmed by an MRI scan 24 h later. […] The reservoir and catheter are flushed after the antibody injection.

As for `Cn1nnc2c(C(N)=O)ncn2c1=O` [temozolomide, reference compound], the “additional reduction of the tumor” value in series [1] (temozolomide therapy given three months after the 3-month follow-up of radioimmunotherapy) came to 25%. In the series with glioblastoma multiforme (given after radioimmunotherapy), the “tolerability of chemotherapy regimen” value was “tolerated well”.

In the case of `NC(=O)[C@H](CCCCNC(=O)CNC(=O)CCC(=O)NCCc1cnc[nH]1)NC(=O)[C@@H](Cc1ccc(O)cc1)NC(=O)[C@H](CCCCNC(=O)CNC(=O)CCC(=O)NCCc1cnc[nH]1)NC(=O)[C@H](Cc1ccccc1)NC(=O)CN1CCN(CC(=O)O)CCN(CC(=O)O)CCN(CC(=O)O)CC1` [Ac-225-IMP 241, metal not drawn] ({DOTA}-FK([Gly-Suc-NH(2-(imidazol-4-yl)ethyl)])[dY]K([Gly-Suc-NH(2-(imidazol-4-yl)ethyl)])-NH2), in series [1] (setting [2]), the “granulocytes (ANC) and platelets” value was “within the normal range”; the hematological toxicity result was “no evidence of hematological toxicity”. For the same compound, the “adverse events from therapy” value in the series on glioblastoma multiforme (1 mCi into surgical cavity two days after 30 mg i.v. humanized anti-tenascin x anti-HSG bispecific antibody) is given as “does not experience any adverse events”.

As for `NC(=O)[C@H](CCCCNC(=O)CNC(=O)CCC(=O)NCCc1cnc[nH]1)NC(=O)[C@@H](Cc1ccc(O)cc1)NC(=O)[C@H](CCCCNC(=O)CNC(=O)CCC(=O)NCCc1cnc[nH]1)NC(=O)[C@H](Cc1ccccc1)NC(=O)CN1CCN(CC(=O)O)CCN(CC(=O)O)CCN(CC(=O)O)CC1` (90Y complex, metal not drawn) [Y-90-IMP 241] ({DOTA}-FK([Gly-Suc-NH(2-(imidazol-4-yl)ethyl)])[dY]K([Gly-Suc-NH(2-(imidazol-4-yl)ethyl)])-NH2), the “tolerability of radioimmunotherapy procedure” value in the series with glioblastome multiforme is “tolerates the radioimmunotherapy procedure well”.
